Reference: patent US7264954B2, “Lipoxygenase” (Novozymes A/S, priority 2001, dated 2007)

Legend:
[1] = target: M. salvinii lipoxygenase (Nakataea oryzae, UniProt P0CT92); conditions: per substrate
[2] = target: T1, soybean lipoxygenase (Glycine max, UniProt P08170); assay: Substrate kinetic parameters with soybean lipoxygenase (comparison); format: biochemical
T1 sequence (P08170 1-839): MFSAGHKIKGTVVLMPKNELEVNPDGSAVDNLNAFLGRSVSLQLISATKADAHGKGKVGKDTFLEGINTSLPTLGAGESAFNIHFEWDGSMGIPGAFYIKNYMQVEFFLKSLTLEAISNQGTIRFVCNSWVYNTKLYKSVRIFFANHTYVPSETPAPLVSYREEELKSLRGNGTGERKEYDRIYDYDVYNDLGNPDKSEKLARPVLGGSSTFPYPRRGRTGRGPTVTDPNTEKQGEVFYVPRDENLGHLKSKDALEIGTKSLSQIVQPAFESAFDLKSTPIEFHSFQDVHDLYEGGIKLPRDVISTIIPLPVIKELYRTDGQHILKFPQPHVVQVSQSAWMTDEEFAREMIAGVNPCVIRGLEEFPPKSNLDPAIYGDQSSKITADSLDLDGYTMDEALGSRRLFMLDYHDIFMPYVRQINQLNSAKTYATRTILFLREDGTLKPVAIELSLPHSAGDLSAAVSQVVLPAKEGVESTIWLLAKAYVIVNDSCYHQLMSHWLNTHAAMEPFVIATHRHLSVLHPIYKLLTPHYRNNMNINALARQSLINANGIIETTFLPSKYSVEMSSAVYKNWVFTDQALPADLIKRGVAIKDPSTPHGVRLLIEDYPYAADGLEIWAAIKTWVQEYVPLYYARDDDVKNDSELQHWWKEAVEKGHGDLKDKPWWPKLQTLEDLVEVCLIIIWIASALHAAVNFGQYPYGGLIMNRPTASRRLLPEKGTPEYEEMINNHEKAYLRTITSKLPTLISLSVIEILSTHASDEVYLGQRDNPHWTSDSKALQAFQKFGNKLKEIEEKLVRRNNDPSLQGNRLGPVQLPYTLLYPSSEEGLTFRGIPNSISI
Description: Soybean lipoxygenase (type I-B) (cat.# L7315) and astaxanthin (cat.# A-9335) was supplied by Sigma. b-carotene (cat.# 031-05533) were supplied by Wako. For comparison, one substrate was also tested with soybean lipoxygenase.

[3] = test system: CCCCC/C=C\C/C=C\C/C=C\C/C=C\CCCC(=O)O; assay: purified protein, by the assay type
[4] = test system: CCCCC/C=C\C/C=C\CCCCCCCC(=O)Cl; assay: purified protein, by the assay type
[5] = test system: CCCCC/C=C\C/C=C\CCCCCCCC(=O)OC; assay: purified protein, by the assay type
[6] = test system: CCCCC/C=C\C/C=C\CCCCCCCCOC(C)=O; assay: purified protein, by the assay type
[7] = test system: CCCCC/C=C\C/C=C\CCCCCCCCO; assay: purified protein, by the assay type
[8] = Bleaching assay, β-carotene pigment solution; format: biochemical
Description: (§1) Bleaching effect by lipoxygenase was examined spectrophotometrically at 25° C. by following the absorbance at 470 nm. The pigment solution was prepared as follows. 150 ul of stock pigment solution (1 mg each pigment in 1 ml chloroform) was evaporated to be dry. Then 30 ml of the buffer (50 mM KH2PO4NaHPO4, pH 7.0) with 0.3% of Tween 20 was added slowly and the pigment was dissolved.
(§2) The bleaching effect of M. salvinii LOX was examined. Soybean L1 was included for comparison. β-carotene and astaxanthin were used as pigments.

[9] = Bleaching assay, astaxanthin pigment solution; format: biochemical
Description: as §1, §2

Sequence of M. salvinii lipoxygenase (P0CT92 18-617): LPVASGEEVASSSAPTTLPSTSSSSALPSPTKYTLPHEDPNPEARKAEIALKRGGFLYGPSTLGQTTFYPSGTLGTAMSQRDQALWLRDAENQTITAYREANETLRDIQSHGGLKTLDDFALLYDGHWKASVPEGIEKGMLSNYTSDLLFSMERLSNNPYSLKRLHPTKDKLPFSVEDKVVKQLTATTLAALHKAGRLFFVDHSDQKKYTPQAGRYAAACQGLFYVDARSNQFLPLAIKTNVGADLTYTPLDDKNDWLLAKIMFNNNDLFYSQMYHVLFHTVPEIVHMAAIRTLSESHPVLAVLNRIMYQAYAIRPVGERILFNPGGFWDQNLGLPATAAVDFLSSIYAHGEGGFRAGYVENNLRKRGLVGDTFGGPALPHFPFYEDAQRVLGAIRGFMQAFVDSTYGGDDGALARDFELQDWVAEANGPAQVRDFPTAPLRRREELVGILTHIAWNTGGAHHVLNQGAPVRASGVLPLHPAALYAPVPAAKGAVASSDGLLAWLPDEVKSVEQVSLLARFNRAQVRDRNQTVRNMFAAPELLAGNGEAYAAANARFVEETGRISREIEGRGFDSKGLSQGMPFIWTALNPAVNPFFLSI

Molecule: CCCCC/C=C/C/C=C/CCCCCCCC(=O)O [Linoelaidic acid]
- KM [1]: No activity
- Vmax [1]: No activity
- Vmax/KM [1]: No activity

Molecule: CCCCC/C=C\C/C=C\CCCCCCCC(=O)O [Linoleic acid]
- Km [2]: 230 µM
- Vmax [2]: 12.3 µmol/min/mg
- Km [1]: 1 µM
- Vmax [1]: 2.63 µmol/min/mg

Molecule: CC/C=C\C/C=C\C/C=C\CCCCCCCC(=O)O [Linolenic acid]
- Km [1]: 0.4 µM

Molecule: CCCCC/C=C\C/C=C\CCCCCCCC(=O)O [Na linoleate]
- Km [1]: 0.41 µM
- Vmax [1]: 2.07 µmol/min/mg

Molecule: M. salvinii lipoxygenase (Nakataea oryzae)
- Km [3]: 5.5 µM
- Vmax [3]: 2.44 µmol/min/mg
- Vmax/Km [3]: 446000 µL/min/mg
- Km [4]: 12 µM
- Vmax [4]: 0.97 µmol/min/mg
- Vmax/Km [4]: 80000 µL/min/mg
- Km [5]: 30 µM
- Vmax [5]: 0.82 µmol/min/mg
- Vmax/Km [5]: 26000 µL/min/mg
- Km [6]: 9 µM
- Vmax [6]: 0.77 µmol/min/mg
- Vmax/Km [6]: 85000 µL/min/mg
- Km [7]: 8 µM
- Vmax [7]: 1.4 µmol/min/mg
- Vmax/Km [7]: 175000 µL/min/mg

B1: Soybean L1: Soybean lipoxygenase (type I-B) (cat.# L7315) supplied by Sigma, included for comparison (protein, UniProt P08170 1-839, looked up)
Seed linoleate …: MFSAGHKIKGTVVLMPKNELEVNPDGSAVDNLNAFLGRSVSLQLISATKADAHGKGKVGKDTFLEGINTSLPTLGAGESAFNIHFEWDGSMGIPGAFYIKNYMQVEFFLKSLTLEAISNQGTIRFVCNSWVYNTKLYKSVRIFFANHTYVPSETPAPLVSYREEELKSLRGNGTGERKEYDRIYDYDVYNDLGNPDKSEKLARPVLGGSSTFPYPRRGRTGRGPTVTDPNTEKQGEVFYVPRDENLGHLKSKDALEIGTKSLSQIVQPAFESAFDLKSTPIEFHSFQDVHDLYEGGIKLPRDVISTIIPLPVIKELYRTDGQHILKFPQPHVVQVSQSAWMTDEEFAREMIAGVNPCVIRGLEEFPPKSNLDPAIYGDQSSKITADSLDLDGYTMDEALGSRRLFMLDYHDIFMPYVRQINQLNSAKTYATRTILFLREDGTLKPVAIELSLPHSAGDLSAAVSQVVLPAKEGVESTIWLLAKAYVIVNDSCYHQLMSHWLNTHAAMEPFVIATHRHLSVLHPIYKLLTPHYRNNMNINALARQSLINANGIIETTFLPSKYSVEMSSAVYKNWVFTDQALPADLIKRGVAIKDPSTPHGVRLLIEDYPYAADGLEIWAAIKTWVQEYVPLYYARDDDVKNDSELQHWWKEAVEKGHGDLKDKPWWPKLQTLEDLVEVCLIIIWIASALHAAVNFGQYPYGGLIMNRPTASRRLLPEKGTPEYEEMINNHEKAYLRTITSKLPTLISLSVIEILSTHASDEVYLGQRDNPHWTSDSKALQAFQKFGNKLKEIEEKLVRRNNDPSLQGNRLGPVQLPYTLLYPSSEEGLTFRGIPNSISI
- ΔA470/min ([8]; β-carotene): 0.00005
- bleaching effect (in words) ([8]; β-carotene and astaxanthin pigment solutions): little effect on bleaching
- LOX activity ([8]; β-carotene experiment): 1.962
- absorbance at 470 nm ([8]; β-carotene, time 0 min, 25° C., pH 7.0): 0.3575
- absorbance at 470 nm ([8]; β-carotene, time 0.4 min): 0.3616
- absorbance at 470 nm ([8]; β-carotene, time 0.8 min): 0.3601
- absorbance at 470 nm ([8]; β-carotene, time 1.2 min): 0.362
- absorbance at 470 nm ([8]; β-carotene, time 1.4 min): 0.3602
- absorbance at 470 nm ([8]; β-carotene, time 1.8 min): 0.3602
- absorbance at 470 nm ([8]; β-carotene, time 2.2 min): 0.3595
- absorbance at 470 nm ([8]; β-carotene, time 2.6 min): 0.3595
- absorbance at 470 nm ([8]; β-carotene, time 3 min): 0.3594
- ΔA470/min ([9]; Astaxanthin): 0.0021
- LOX activity ([9]; Astaxanthin experiment): 2.018
- absorbance at 470 nm ([9]; Astaxanthin, time 0 min, 25° C., pH 7.0): 0.5026
- absorbance at 470 nm ([9]; Astaxanthin, time 0.4 min): 0.5029
- absorbance at 470 nm ([9]; Astaxanthin, time 0.8 min): 0.505
- absorbance at 470 nm ([9]; Astaxanthin, time 1 min): 0.5025
- absorbance at 470 nm ([9]; Astaxanthin, time 1.4 min): 0.5013
- absorbance at 470 nm ([9]; Astaxanthin, time 1.8 min): 0.4993
- absorbance at 470 nm ([9]; Astaxanthin, time 2.2 min): 0.4985
- absorbance at 470 nm ([9]; Astaxanthin, time 2.6 min): 0.4986
- absorbance at 470 nm ([9]; Astaxanthin, time 3 min): 0.498
